From paper PMC5673899, “Structural basis for receptor recognition of pollen tube attraction peptides” (Nature Communications, 2017)
Positions count from the first letter of the chain named. Names may count otherwise. “Also recorded” adds a separate entry of the source.

Key:
[1] = biological target: T1, AtPRK6^LRR, extracellular LRR domain of AtPRK6 (residues 1-262) (Arabidopsis thaliana, UniProt Q3E991 27-262); experiment: ITC; ITC200, 25 °C, 200 mM HEPES pH 7.0, 100 mM NaCl; about 0.9 mM AtLURE1.2 injected (20 x 2 μl) into 0.08 mM LRR protein in the cell; details: both partners purified
T1 construct: signal peptide in the construct; leucine-rich repeat receptor kinase PRK6 of Arabidopsis thaliana, extracellular LRR domain, residues 1-262; Monomer by gel filtration; likely glycosylated (apparent 34 kDa); source: High Five insect cells (baculovirus), secreted, purified (Ni-NTA, size-exclusion chromatography); also co-expressed with AtLURE1 peptides; not shown: His6, C-terminal, kept
T1 sequence (looked up): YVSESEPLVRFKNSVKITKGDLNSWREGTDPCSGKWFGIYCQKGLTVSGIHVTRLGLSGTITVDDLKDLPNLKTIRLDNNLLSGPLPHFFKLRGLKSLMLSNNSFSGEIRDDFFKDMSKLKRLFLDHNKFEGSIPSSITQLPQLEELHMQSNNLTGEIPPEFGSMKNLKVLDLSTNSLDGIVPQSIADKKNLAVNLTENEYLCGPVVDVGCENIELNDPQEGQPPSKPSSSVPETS

[2] = biological target: T2, AtPRK6^LRR, extracellular LRR domain of AtPRK6 (residues 1-262) (Arabidopsis thaliana, UniProt Q3E991 27-262); experiment: ITC
T2 chain: T1 sequence (looked up)

[3] = biological target: T3, AtPRK6^LRR N239A (residues 1-262) (Arabidopsis thaliana, UniProt Q3E991 27-262, N239A); experiment: pull-down; His-tagged LRR protein mixed with excess AtLURE1.2 peptide and held on Ni-NTA resin, on ice 30 min; washed five times with 25 mM Tris pH 8.0, 150 mM NaCl, 15 mM imidazole; eluted with 250 mM imidazole; SDS-PAGE, Coomassie; details: both partners purified
T3 construct: signal peptide in the construct; PRK6 of Arabidopsis thaliana, extracellular LRR domain, residues 1-262, with N239A; also called N239A mutant of PRK6; source: High Five insect cells (baculovirus), secreted, purified as AtPRK6^LRR; not shown: His6, C-terminal, kept
T3 sequence (looked up): T1 sequence (looked up) with N213A

AtPRK6^LRR = experiment: In vitro pull-down with AtPRK6^LRR; format: binding, Arabidopsis thaliana
Text: The genes of AtPRK3 ^LRR (residues 1–241), AtPRK4 ^LRR (residues 1–277), AtPRK5 ^LRR (residues 1–279), AtPRK6 ^LRR (residues 1–262), MIK1 ^LRR (residues 1–633), MIK2 ^LRR (residues 1–707) were amplified from Arabidopsis cDNA library by PCR and cloned into pFastBac-1 vector with a C-terminal 6 × His-tag. Their identities were confirmed by sequencing. The mature form of AtLURE1.1 (residues 20–94), AtLURE1.2 (residues 20–90), AtLURE1.3 (residues 21–91), and AtLURE1.4 (residues 20–90) were cloned into pFastBac-1 vector, with a modified N-terminal hemolin signal peptide and 6 × His-SUMO tag. Point mutation constructs were generated by QuickChange Site-Directed Mutagenesis Kit (Strategene). All the proteins were expressed using the Bac-to-Bac baculovirus expression system (Invitrogen) in High Five cells at 22 °C. One liter of High Five cells (2.0 × 10^6 cells mL^−1) cultured in the medium from Expression Systems was infected with 25 ml recombinant baculovirus and the media was collected after 72 h of infection. Secreted LRR proteins were purified using Ni-NTA (Novagen) and size-exclusion chromatography (Hiload 200, GE Healthcare) in buffer containing 10 mM Bis-Tris pH 6.0 and 100 mM NaCl. The His-SUMO tag of the AtLURE proteins was removed by Prescission Protease at 4 °C overnight in buffer containing 25 mM Tris pH 8.0 and 150 mM NaCl. All AtLURE proteins were further cleaned by size-exclusion chromatography (Hiload 200, GE Healthcare). For co-expression of AtPRK6^LRR and AtLURE1, one liter of High Five cells were co-infected with 20 and 30 ml recombinant baculovirus of AtPRK6^LRR and AtLURE1, respectively. Secreted AtPRK6^LRR-AtLURE1 complexes were processed with Prescission Protease digestion and then purified as described above. Expression and purification procedures of all the mutants were essentially the same as those of AtPRK6^LRR and AtLURE1.2.
The purified His-tagged ectodomains of AtPRK proteins and MIK1, 2 were used to pull-down the AtLURE1.2 peptide. […] All the eluted samples were analyzed by SDS-PAGE and visualized by Coomassie blue staining. […]

[4] = tested on: semi-in-vivo pollen tubes; experiment: Gelatin-beads assay, wild-type semi-in-vivo pollen tubes; format: cell-based, Arabidopsis; details: for pollen tube attraction activity (in words): Tukey−Kramer test, P < 0.05
Procedure: (§1) Attraction activities of mutant AtLURE1.2 peptides were examined for semi-in-vivo pollen tubes growing through cut, pollinated pistils by gelatin-beads assay and wavy assay, [20]. For the gelatin-beads assay, pollen tubes were grown on solid pollen germination medium poured into a mold made with 1-mm thick silicone rubber and cover glasses. After hand-pollination, the topside cover glass was removed and the medium was covered with hydrated silicone oil (KF-96–100CS; Shin-Etsu). Attraction of pollen tubes toward the peptide was evaluated using AtLURE1 peptide containing gelatine beads under an inverted microscope (IX71, Olympus) equipped with a micro-manipulator (Narishige). For the AtLURE1-responsive wavy assay, the purified AtLURE1.2 peptide was added to solid pollen germination medium, which was melted at 70 °C and then cooled to a certain degree. The mixture was mixed by vortexing and poured into the mold. Pollen tubes of each genotype were grown through cut styles, as mentioned above. Each peptide (25 μM in 10 mM Bis-Tris (pH 6.0) and 100 mM NaCl) was diluted to 250 nM by cultivation medium in both assays. To examine reactivity of PRK6 mutants to AtLURE1.2, constructs for PRK6 mutants, D234A, N239A, and ΔN239I240, were generated by site-directed mutagenesis from a wild-type PRK6 vector, pPZP221-pPRK6::PRK6-mRuby2 (ref. [20]). Wild-type and mutant PRK6 constructs were introduced into prk6–1 plant. After transformants were selected by the same criteria as previously, beads assay and wavy assay were performed in several T1 lines and single T2 line, respectively, for each genotype using 250 nM wild-type AtLURE1.2 peptide.

[5] = tested on: semi-in-vivo pollen tubes (wild type); experiment: AtLURE-responsive wavy assay, wild-type pollen tubes; format: cell-based, Arabidopsis; details: 250 nM peptide in solid pollen germination medium
Procedure: as §1, with “To examine reactivity of PRK6 mutants to AtLURE1.2, constructs for PRK6 mutants, D234A, N239A, and ΔN239I240, were generated by site-directed mutagenesis from a wild-type PRK6 vector, pPZP221-pPRK6::PRK6-mRuby2 (ref. [20]). Wild-type and mutant PRK6 constructs were introduced into prk6–1 plant. After transformants were selected by the same criteria as previously, beads assay and wavy assay were performed in several T1 lines and single T2 line, respectively, for each genotype using 250 nM wild-type AtLURE1.2 peptide.” left out
pollen tubes. Fluorescence is from mRuby2 fused to the C-terminal of PRK6 receptors, showing that all of mutant PRK6 receptors localize normally to the plasma membrane of the pollen tube tip. […]

[6] = biological target: T1, AtPRK6^LRR, extracellular LRR domain of …; experiment: pull-down; His-tagged LRR protein mixed with excess AtLURE1.2 peptide and held on Ni-NTA resin, on ice 30 min; washed five times with 25 mM Tris pH 8.0, 150 mM NaCl, 15 mM imidazole; eluted with 250 mM imidazole; SDS-PAGE, Coomassie; details: both partners purified
[7] = gelatin beads containing 250 nM peptide

B1: AtLURE1.2, mature form (residues 20-90) (peptide, UniProt Q4VP08 20-90, looked up)
chain: TLINGSSDEERTYSFSPTTSPFDPRSLNQELKIGRIGYCFDCARACMRRGKYIRTCSFERKLCRCSISDIK
notes: AtLURE1.2, defensin-like cysteine-rich peptide of Arabidopsis thaliana, mature form, residues 20-90; Cloned in pFastBac-1 behind a modified N-terminal hemolin signal peptide and a 6xHis-SUMO tag; Likely glycosylated (apparent 14 kDa); also called AtLURE1.2 peptide; source: also co-expressed with AtPRK6^LRR for the crystallised complex; not shown: His6, N-terminal, cleaved; SUMO, N-terminal, …
Kd [1]: ~3.1 µM | Ka [2]: 321000 M⁻¹ | binding result [3]: binds

B2: R83A: R83A AtLURE1.2 peptide, Arg83 substituted with alanine (protein)
chain: B1 chain with R64A
modifications: left off: His6, N-terminal, cleaved | SUMO, N-terminal, cleaved
notes: R83A AtLURE1.2 peptide, Arg83 substituted with alanine
interaction in pull-down assay (AtPRK6^LRR; Ni-NTA, excess AtLURE1.2, on ice 30 min, washed five times, 25 mM Tris pH 8.0, 150 mM NaCl, SDS-PAGE, Coomassie blue, repeated at least three times): compromised but not abolished; also recorded: compromised | interaction in pull-down assay, less harsh washing (AtPRK6^LRR; once or twice washing, peer review file): much less than the wild type AtLURE1.2 | pollen tube attraction activity (in words) [4, 7]: significantly lower than those in other four peptides | attraction frequency of pollen tubes ([4]; gelatin beads containing 250 nM peptide, mean ± SD, 9–16 pollen tubes per assay, 3−5 assays): 56 ± 11% | pollen tubes not attracted to the bead ([4]; gelatin beads, 250 nM peptide): more than 44% | wavy pollen tube response [5]: decreased; also recorded: greatly reduced the numbers of wavy pollen tubes

B3: R68A: R68A mutant AtLURE1.2 peptide (protein, UniProt Q4VP08 20-90, looked up, variant R68A)
Protein LURE 1.2: B1 chain with R49A
pollen tube attraction activity (in words) [4, 7]: little effect

B4: R73A: R73A mutant AtLURE1.2 peptide (protein, UniProt Q4VP08 20-90, looked up, variant R73A)
Protein LURE 1.2: B1 chain with R54A
pollen tube attraction activity (in words) [4, 7]: little effect

B5: R79A: R79A mutant AtLURE1.2 peptide (protein, UniProt Q4VP08 20-90, looked up, variant R79A)
Protein LURE 1.2: B1 chain with R60A
pollen tube attraction activity (in words) [4, 7]: little effect

B6: AtLURE1.2 R83A (residues 20-90) (peptide, UniProt Q4VP08 20-90, looked up)
chain: B1 chain with R64A
notes: AtLURE1.2 of Arabidopsis thaliana, mature form, residues 20-90, with R83A; also called R83A AtLURE1.2; mutant peptide R83A; source: High Five insect cells (baculovirus), secreted, purified as AtLURE1.2; not shown: His6, N-terminal, cleaved; SUMO, N-terminal, cleaved
binding result [6]: binds
